Values quoted from earlier work as cited in paper PMC3727077.
Where two headings read alike, the source gives them in different places.

What was measured:
α2MFAST (Homo sapiens) = α2MFAST (Homo sapiens) (UniProt P01023)
VEGFR1 (Homo sapiens) = VEGFR1 (Homo sapiens) (UniProt P17948)
VEGFR2 (Homo sapiens) = VEGFR2 (Homo sapiens) (UniProt P35968)
NRP1 (Homo sapiens) [1] = biological target: NRP1 (Homo sapiens) (UniProt O14786)
α2M (Homo sapiens) = α2M (Homo sapiens) (UniProt P01023)
NRP1 (Homo sapiens) [2] = biological target: NRP1 (Homo sapiens) (UniProt O14786); remark: listed apart in the source

Sequence of UniProt P35968 (P35968 20-1356): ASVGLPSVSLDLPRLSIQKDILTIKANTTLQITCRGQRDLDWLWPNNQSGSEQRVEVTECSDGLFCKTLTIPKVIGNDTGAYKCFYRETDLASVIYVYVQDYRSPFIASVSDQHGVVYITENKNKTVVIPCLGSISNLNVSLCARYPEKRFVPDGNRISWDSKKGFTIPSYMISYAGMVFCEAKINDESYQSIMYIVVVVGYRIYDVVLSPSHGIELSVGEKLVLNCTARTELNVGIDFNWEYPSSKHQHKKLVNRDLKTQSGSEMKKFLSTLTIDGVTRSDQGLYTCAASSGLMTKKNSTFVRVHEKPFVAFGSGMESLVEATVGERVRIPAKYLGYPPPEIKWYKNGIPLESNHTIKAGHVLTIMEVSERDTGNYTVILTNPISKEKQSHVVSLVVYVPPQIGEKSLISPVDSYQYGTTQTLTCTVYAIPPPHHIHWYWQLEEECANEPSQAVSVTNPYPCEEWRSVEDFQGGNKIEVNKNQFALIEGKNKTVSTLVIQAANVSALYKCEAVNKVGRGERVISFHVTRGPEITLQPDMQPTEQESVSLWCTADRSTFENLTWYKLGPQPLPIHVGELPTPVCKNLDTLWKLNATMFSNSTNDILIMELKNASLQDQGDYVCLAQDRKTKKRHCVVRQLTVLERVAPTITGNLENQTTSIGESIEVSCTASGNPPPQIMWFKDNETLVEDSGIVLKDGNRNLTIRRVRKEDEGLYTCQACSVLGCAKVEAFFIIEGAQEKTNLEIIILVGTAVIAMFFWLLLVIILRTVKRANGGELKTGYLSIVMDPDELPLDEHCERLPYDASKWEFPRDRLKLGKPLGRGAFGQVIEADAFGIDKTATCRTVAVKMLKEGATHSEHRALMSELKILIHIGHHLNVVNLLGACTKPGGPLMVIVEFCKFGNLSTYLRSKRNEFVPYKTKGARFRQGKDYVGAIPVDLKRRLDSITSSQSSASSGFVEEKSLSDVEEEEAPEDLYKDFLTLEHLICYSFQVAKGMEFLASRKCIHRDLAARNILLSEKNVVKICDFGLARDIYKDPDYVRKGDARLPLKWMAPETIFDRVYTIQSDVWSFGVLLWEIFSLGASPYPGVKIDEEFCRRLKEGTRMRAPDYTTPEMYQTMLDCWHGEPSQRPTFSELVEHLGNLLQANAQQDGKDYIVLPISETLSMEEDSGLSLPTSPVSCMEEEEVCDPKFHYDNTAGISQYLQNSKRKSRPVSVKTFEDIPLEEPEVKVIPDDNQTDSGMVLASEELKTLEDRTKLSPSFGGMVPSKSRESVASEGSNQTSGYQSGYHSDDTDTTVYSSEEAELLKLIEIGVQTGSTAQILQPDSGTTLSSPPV

| Kd (α2MFAST (Homo sapiens)) [nM] | Kd (VEGFR1 (Homo sapiens)) [nM] | Kd (VEGFR2 (Homo sapiens)) [nM] | Kd (NRP1 (Homo sapiens) [1]) [nM] | Kd (α2M (Homo sapiens)) [nM] | Kd (NRP1 (Homo sapiens) [2]) [nM] | Substance |
| --- | --- | --- | --- | --- | --- | --- |
| 420 | 0.033 | 0.1 | 0.312 | 4000 | – | VEGF (from UniProt P15692) |
| – | – | – | – | – | 1.8 | sVEGFR1 soluble (from UniProt P17948) |
